Source: the supplement of paper PMC9112550, “Optimization of the antimicrobial peptide Bac7 by deep mutational scanning” (BMC Biology, 2022)
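Also: peptides expressed intracellularly from a pBAD plasmid library in pooled LB shake-flask culture, induced with 0.3% L-arabinose, DNA abundance read by NGS, three biological replicates, DESeq2 with apeglm shrinkage.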

What follows are sequences tested on Escherichia coli TOP10 (assay: shrunken log2 fold change of peptide-encoding DNA abundance (4.5 h post-induction vs induction); higher = less antimicrobial activity (less host growth inhibition)). Conditions: time post-induction: 4.5 h; library: site-saturation at positions 5, 18, 19, 20.
RRIRRRPPRLPRPRPRPKSPPRP was tested, and the “shrunken log2 fold change” value was 0.189. RRIRRRPPRLPRPRPRPKWPPRP was tested, and the “shrunken log2 fold change” value was 0.141. RRIRRRPPRLPRPRPRPLCHPRP was tested, and the “shrunken log2 fold change” value was 0.182. RRIRRRPPRLPRPRPRPLDAPRP was tested, and the “shrunken log2 fold change” value was 0.472. In the case of RRIRRRPPRLPRPRPRPLDIPRP, the “shrunken log2 fold change” value is reported as -0.121. RRIRRRPPRLPRPRPRPLECPRP was tested, and the “shrunken log2 fold change” value was 0.0527. For RRIRRRPPRLPRPRPRPLERPRP, the “shrunken log2 fold change” value was 0.0981. With RRIRRRPPRLPRPRPRPLFLPRP the “shrunken log2 fold change” value was -0.173. For RRIRRRPPRLPRPRPRPLGDPRP, the “shrunken log2 fold change” value was 0.682. In the case of RRIRRRPPRLPRPRPRPLGLPRP, the “shrunken log2 fold change” value is reported as 0.363. With RRIRRRPPRLPRPRPRPLGNPRP the “shrunken log2 fold change” value was -0.0268. For RRIRRRPPRLPRPRPRPLIAPRP, the “shrunken log2 fold change” value was 0.294. RRIRRRPPRLPRPRPRPLMFPRP was tested, and the “shrunken log2 fold change” value was 0.0336. With RRIRRRPPRLPRPRPRPLMTPRP the “shrunken log2 fold change” value was 0.351. For RRIRRRPPRLPRPRPRPLMVPRP, the “shrunken log2 fold change” value was -0.161. In the case of RRIRRRPPRLPRPRPRPLPAPRP, the “shrunken log2 fold change” value is reported as 0.599. RRIRRRPPRLPRPRPRPLPTPRP was tested, and the “shrunken log2 fold change” value was 0.729. RRIRRRPPRLPRPRPRPLQSPRP was tested, and the “shrunken log2 fold change” value was 0.242. With RRIRRRPPRLPRPRPRPLRKPRP the “shrunken log2 fold change” value was 0.793. In the case of RRIRRRPPRLPRPRPRPLSCPRP, the “shrunken log2 fold change” value is reported as -0.146. With RRIRRRPPRLPRPRPRPLTQPRP the “shrunken log2 fold change” value was 0.342. For RRIRRRPPRLPRPRPRPLWFPRP, the “shrunken log2 fold change” value was 0.396. In the case of RRIRRRPPRLPRPRPRPLYHPRP, the “shrunken log2 fold change” value is reported as -0.353. RRIRRRPPRLPRPRPRPLYMPRP was tested, and the “shrunken log2 fold change” value was -0.15. In the case of RRIRRRPPRLPRPRPRPLYTPRP, the “shrunken log2 fold change” value is reported as -0.132. In the case of RRIRRRPPRLPRPRPRPMGEPRP, the “shrunken log2 fold change” value is reported as 0.0186. In the case of RRIRRRPPRLPRPRPRPMGIPRP, the “shrunken log2 fold change” value is reported as 0.0313. For RRIRRRPPRLPRPRPRPMHKPRP, the “shrunken log2 fold change” value was 0.299. RRIRRRPPRLPRPRPRPMHTPRP was tested, and the “shrunken log2 fold change” value was 0.322. RRIRRRPPRLPRPRPRPMKCPRP was tested, and the “shrunken log2 fold change” value was -0.0984. With RRIRRRPPRLPRPRPRPMKDPRP the “shrunken log2 fold change” value was 0.19. RRIRRRPPRLPRPRPRPMKFPRP was tested, and the “shrunken log2 fold change” value was 0.212. For RRIRRRPPRLPRPRPRPMMHPRP, the “shrunken log2 fold change” value was 0.101. RRIRRRPPRLPRPRPRPMMKPRP was tested, and the “shrunken log2 fold change” value was 0.324. With RRIRRRPPRLPRPRPRPMNNPRP the “shrunken log2 fold change” value was -0.137. In the case of RRIRRRPPRLPRPRPRPMPCPRP, the “shrunken log2 fold change” value is reported as 0.0929. In the case of RRIRRRPPRLPRPRPRPMSCPRP, the “shrunken log2 fold change” value is reported as 0.0813. For RRIRRRPPRLPRPRPRPMSNPRP, the “shrunken log2 fold change” value was -0.0453. For RRIRRRPPRLPRPRPRPMTNPRP, the “shrunken log2 fold change” value was -0.00301. In the case of RRIRRRPPRLPRPRPRPMTYPRP, the “shrunken log2 fold change” value is reported as -0.0343. RRIRRRPPRLPRPRPRPMVNPRP was tested, and the “shrunken log2 fold change” value was -0.0292. In the case of RRIRRRPPRLPRPRPRPMWGPRP, the “shrunken log2 fold change” value is reported as 0.0327. RRIRRRPPRLPRPRPRPMWIPRP was tested, and the “shrunken log2 fold change” value was -0.137. With RRIRRRPPRLPRPRPRPMWKPRP the “shrunken log2 fold change” value was -0.0119. In the case of RRIRRRPPRLPRPRPRPMWPPRP, the “shrunken log2 fold change” value is reported as 0.265. RRIRRRPPRLPRPRPRPMWWPRP was tested, and the “shrunken log2 fold change” value was 0.291. In the case of RRIRRRPPRLPRPRPRPMWYPRP, the “shrunken log2 fold change” value is reported as 0.0371. For RRIRRRPPRLPRPRPRPMYGPRP, the “shrunken log2 fold change” value was -0.0152. RRIRRRPPRLPRPRPRPMYIPRP was tested, and the “shrunken log2 fold change” value was -0.73. For RRIRRRPPRLPRPRPRPMYTPRP, the “shrunken log2 fold change” value was -0.219. In the case of RRIRRRPPRLPRPRPRPNAAPRP, the “shrunken log2 fold change” value is reported as 0.794. RRIRRRPPRLPRPRPRPNCIPRP was tested, and the “shrunken log2 fold change” value was 0.104. With RRIRRRPPRLPRPRPRPNDKPRP the “shrunken log2 fold change” value was -0.178. In the case of RRIRRRPPRLPRPRPRPNDMPRP, the “shrunken log2 fold change” value is reported as 0.13. With RRIRRRPPRLPRPRPRPNEFPRP the “shrunken log2 fold change” value was -0.0247. RRIRRRPPRLPRPRPRPNFTPRP was tested, and the “shrunken log2 fold change” value was 0.205. RRIRRRPPRLPRPRPRPNFVPRP was tested, and the “shrunken log2 fold change” value was -0.142. In the case of RRIRRRPPRLPRPRPRPNHEPRP, the “shrunken log2 fold change” value is reported as -0.0399. For RRIRRRPPRLPRPRPRPNIMPRP, the “shrunken log2 fold change” value was -0.359. RRIRRRPPRLPRPRPRPNKDPRP was tested, and the “shrunken log2 fold change” value was 0.202. In the case of RRIRRRPPRLPRPRPRPNMCPRP, the “shrunken log2 fold change” value is reported as -0.368. RRIRRRPPRLPRPRPRPNMQPRP was tested, and the “shrunken log2 fold change” value was 0.183. In the case of RRIRRRPPRLPRPRPRPNNMPRP, the “shrunken log2 fold change” value is reported as -0.348. With RRIRRRPPRLPRPRPRPNPMPRP the “shrunken log2 fold change” value was 0.359. RRIRRRPPRLPRPRPRPNQWPRP was tested, and the “shrunken log2 fold change” value was 0.128. For RRIRRRPPRLPRPRPRPNRGPRP, the “shrunken log2 fold change” value was -0.0468. In the case of RRIRRRPPRLPRPRPRPNRLPRP, the “shrunken log2 fold change” value is reported as 0.523. For RRIRRRPPRLPRPRPRPNVIPRP, the “shrunken log2 fold change” value was -0.265. In the case of RRIRRRPPRLPRPRPRPNVKPRP, the “shrunken log2 fold change” value is reported as 0.0575. For RRIRRRPPRLPRPRPRPNWIPRP, the “shrunken log2 fold change” value was 0.259. In the case of RRIRRRPPRLPRPRPRPNWLPRP, the “shrunken log2 fold change” value is reported as 0.121. For RRIRRRPPRLPRPRPRPPAHPRP, the “shrunken log2 fold change” value was 0.728. In the case of RRIRRRPPRLPRPRPRPPDAPRP, the “shrunken log2 fold change” value is reported as 0.768. RRIRRRPPRLPRPRPRPPDYPRP was tested, and the “shrunken log2 fold change” value was 0.244. RRIRRRPPRLPRPRPRPPEIPRP was tested, and the “shrunken log2 fold change” value was -0.17. In the case of RRIRRRPPRLPRPRPRPPEYPRP, the “shrunken log2 fold change” value is reported as 0.0513. RRIRRRPPRLPRPRPRPPFNPRP was tested, and the “shrunken log2 fold change” value was 0.333. RRIRRRPPRLPRPRPRPPFSPRP was tested, and the “shrunken log2 fold change” value was 0.207. In the case of RRIRRRPPRLPRPRPRPPGDPRP, the “shrunken log2 fold change” value is reported as 1.06. RRIRRRPPRLPRPRPRPPGYPRP was tested, and the “shrunken log2 fold change” value was 1.22. With RRIRRRPPRLPRPRPRPPIFPRP the “shrunken log2 fold change” value was 0.16. For RRIRRRPPRLPRPRPRPPKSPRP, the “shrunken log2 fold change” value was 0.37. RRIRRRPPRLPRPRPRPPLMPRP was tested, and the “shrunken log2 fold change” value was 0.708. For RRIRRRPPRLPRPRPRPPLRPRP, the “shrunken log2 fold change” value was 0.964. For RRIRRRPPRLPRPRPRPPLSPRP, the “shrunken log2 fold change” value was 0.996. RRIRRRPPRLPRPRPRPPNAPRP was tested, and the “shrunken log2 fold change” value was 1.06. For RRIRRRPPRLPRPRPRPPNHPRP, the “shrunken log2 fold change” value was 0.234. For RRIRRRPPRLPRPRPRPPNPPRP, the “shrunken log2 fold change” value was 0.691. RRIRRRPPRLPRPRPRPPNSPRP was tested, and the “shrunken log2 fold change” value was -0.0871. For RRIRRRPPRLPRPRPRPPPTPRP, the “shrunken log2 fold change” value was 1.12. For RRIRRRPPRLPRPRPRPPQWPRP, the “shrunken log2 fold change” value was 0.66. In the case of RRIRRRPPRLPRPRPRPPSKPRP, the “shrunken log2 fold change” value is reported as 0.172. For RRIRRRPPRLPRPRPRPPSQPRP, the “shrunken log2 fold change” value was 0.46. RRIRRRPPRLPRPRPRPPTRPRP was tested, and the “shrunken log2 fold change” value was 0.688. For RRIRRRPPRLPRPRPRPPTYPRP, the “shrunken log2 fold change” value was 0.0139. With RRIRRRPPRLPRPRPRPPVHPRP the “shrunken log2 fold change” value was 0.197. For RRIRRRPPRLPRPRPRPPWYPRP, the “shrunken log2 fold change” value was 0.0413. With RRIRRRPPRLPRPRPRPQCIPRP the “shrunken log2 fold change” value was -0.0103. In the case of RRIRRRPPRLPRPRPRPQDCPRP, the “shrunken log2 fold change” value is reported as -0.151. With RRIRRRPPRLPRPRPRPQDEPRP the “shrunken log2 fold change” value was -0.0204. For RRIRRRPPRLPRPRPRPQDIPRP, the “shrunken log2 fold change” value was -1.16. In the case of RRIRRRPPRLPRPRPRPQDLPRP, the “shrunken log2 fold change” value is reported as 0.0389. For RRIRRRPPRLPRPRPRPQEHPRP, the “shrunken log2 fold change” value was 1.34. For RRIRRRPPRLPRPRPRPQFTPRP, the “shrunken log2 fold change” value was -0.0485. For RRIRRRPPRLPRPRPRPQGKPRP, the “shrunken log2 fold change” value was 0.0379. RRIRRRPPRLPRPRPRPQGLPRP was tested, and the “shrunken log2 fold change” value was 0.143. For RRIRRRPPRLPRPRPRPQHCPRP, the “shrunken log2 fold change” value was -0.0448. With RRIRRRPPRLPRPRPRPQIQPRP the “shrunken log2 fold change” value was 0.151. For RRIRRRPPRLPRPRPRPQKEPRP, the “shrunken log2 fold change” value was 0.00366.
